This note sets out measurements from the nanobody polyreactivity screen of Harvey et al. (2022).

The nature of the data set: yeast display, Sf9 membrane polyspecificity reagent, FACS + sequencing; frameworks hold sequencing errors. A digest of the protocol:
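In a synthetic yeast display library (Saccharomyces cerevisiae BJ5465), nanobody expression was induced with galactose for 36–48 hours. FACS gates were set low and high (top ~1%) using anti-HA fluorescence for expression and streptavidin fluorescence for binding of the Sf9 membrane reagent. Each polyreactivity label is drawn from the gate of origin.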
On to “QVQLVESGGGLVQAGGSLRLSCAASGSTFHRNAMGWYRQAPGKERELVAAITSGGSTNYADSVKGRFTISRDNAKNTVYLQMNSLKPEDTAVYYCAKDYRHYNRGWYDYWGQGTQVTVSS”, for which the “polyreactivity (PSR sort gate)” value was “low polyreactivity”.

Take “QVQLVESGGGLVQAGGSLRLSCAASGSTFHRNTMGWYRQAPGKERELVAGISLRGVRTYYADSVKGRFTISRDNAKNTVYLQMNSLKPEDTAVYYCAAGGPYTRNFKLGYWGQGTQVTVSS”: the “polyreactivity (PSR sort gate)” value was “high polyreactivity”.

Take “QVQLVESGGGLVQAGGSLRLSCAASGSTFHSNAMGGYRQAPGKERELVAAISSGGSTNYADSVKGRFTISRDNAKNTVYLQMNSLKPEDTAVYYCAAVWRYLGYTAMDYWGQGTQVTVSS”: the “polyreactivity (PSR sort gate)” value is given as “low polyreactivity”. Next, “QVQLVESGGGLVQAGGSLRLSCAASGSTFHSYVMGWYRQAHGKERELVAAITSRGGSTNYADSVKGRFTISRDNAKNTVYLQMNSLKPEDTAVYYCAADGYWGWSYFRYDYWGQGTLVTVSS”: “low polyreactivity”; “QVQLVESGGGLVQAGGSLRLSCAASGSTFHTYDMGWYRQAPGKERELVAAITSGGDTNYADSVKGRFTISRDNAKNTVYLQMNSLKPEDTAVYYCNTDRWGTGKLRYNYWGQGTQVTVSS”: “low polyreactivity”. Next, “QVQLVESGGGLVQAGGSLRLSCAASGSTFHTYGLGWYRQAPGKERELVAAIDLSDGSTYYADSVKGRFTISRDNAKNTVYLQMNSLKPADTAVYYCKADYFPKPYRPDDYWGQGTQVTVSS”: “low polyreactivity”. “QVQLVESGGGLVQAGGSLRLSCAASGSTFHWYDMGWYRQAPGKERELVAGINSSGDGTYYADSVKGRFTISRDNAKYTVYLQMNSLKPEDTAVYYCAAPWWYYGVPYQTNKYDYWGQGTQVTVSS”: the “polyreactivity (PSR sort gate)” value was “low polyreactivity”. On to “QVQLVESGGGLVQAGGSLRLSCAASGSTFHYYAMGWYRQAPGKERELVAAISQSGSGTYYADSVKGRFTISRDNAKNTVYLQMNSLKPEDTAVYYCAKESTKIYRVVEMDYWGQGTQVTVSS”, for which the “polyreactivity (PSR sort gate)” value is reported as “low polyreactivity”. In the case of “QVQLVESGGGLVQAGGSLRLSCAASGSTFHYYVMRWYRQAPGKERELVAAIRRSGGTTYYADSVKGRFTISRDNAKNTVYLQMNSLKPEDTAVYYCAAPGWYGGYPSYYYWGQGTQVSVSS”, the “polyreactivity (PSR sort gate)” value was “low polyreactivity”. “QVQLVESGGGLVQAGGSLRLSCAASGSTFIAYTMGWYRQAPGKERELVAAITWSGGGTYYADSVKGRFTISRDNAKNTVYLQMNSLKPEDTAVYYCAKRGWRGYYWGQGTQVTVSS”: the “polyreactivity (PSR sort gate)” value is “high polyreactivity”. The result for “QVQLVESGGGLVQAGGSLRLSCAASGSTFIFYVMVWYRQAPGKERELVASITGNGTSTYYADSVKGRFTISRDNAKNTVYLQMNSLKPEDSAVYYCNAVFSPSRYDYWGQGTQVTVSS” reads “low polyreactivity”. Next, “QVQLVESGGGLVQAGGSLRLSCAASGSTFIGNAMGRYRQAPGKERELVAAITRSGGSTFYADSVKGRFTISRDYAKNTVYLQMNSLKPEDTAVYYCAARTRRGLARYDYWGQGTQVTVSS”: “high polyreactivity”; “QVQLVESGGGLVQAGGSLRLSCAASGSTFIGNAMGWYRQAPGKERELVAAITRSGGSTFYADSVKGRFTISRDNAKNTVYLQMNSLKPEDTAVYYCSAKGNPYRVPGSSYPKVNYWGQGTQVTVSS”: “high polyreactivity”; “QVQLVESGGGLVQAGGSLRLSCAASGSTFIGYAMGWYRQAPGKDRELVAAITRSGGRTYYADSVKGRFTISRDNAKNTVYLQMNSLKPEVSAVYYCAARVKGQWNTYDYWGQGTQVTVSS”: “high polyreactivity”.

In the case of “QVQLVESGGGLVQAGGSLRLSCAASGSTFIHNAMGWYRQAPRKERELVAAITSGGSTYYADSVKGRFTISRDNAKNTVYLQMNSLKPEDTAVYYCNRGSWRYSTMEYWGQGTQVTVSS”, the “polyreactivity (PSR sort gate)” value is recorded as “high polyreactivity”. Next, “QVQLVESGGGLVQAGGSLRLSCAASGSTFIKNAMGWYRQAPGKERELVAAIPWGGGSTYYADSVKGRFTISRDNAKNTVYLQMNSLKPEDTAVYYCAAGNDIWRYYGYDYWGQGTQVTVSS”: “low polyreactivity”. As for “QVQLVESGGGLVQAGGSLRLSCAASGSTFILKAMGWYRQAPGKERELVATISSSDTSPYYADSVKGRFTISRDTAKNTVYLQMNSLKPEDTAVYYCNADYYTTSYLQRVYHYGVDYDYWGQGTQVTVSS”, the “polyreactivity (PSR sort gate)” value is on record as “low polyreactivity”. For “QVQLVESGGGLVQAGGSLRLSCAASGSTFILNAMGWYRQAPGKERELVATISSSDTSTYYADSVKGRFTISRDNAKNTVYLLMNSLKPDDTAVYFCNADYYTTSYLQRVYHYGVEYDYWGQGTQVTLSS”, the “polyreactivity (PSR sort gate)” value is “low polyreactivity”. The result for “QVQLVESGGGLVQAGGSLRLSCAASGSTFIPNAMGWYRQAPGKERELVAAITYRGGRTYYADSVKGRFTISRDNAKYTVYLQLNSLKPEDTAVYYCAADFWYNQVRFYYWGQGTQVTVSS” reads “high polyreactivity”; that for “QVQLVESGGGLVQAGGSLRLSCAASGSTFIPYAMGWYRQAPGKERELVARITWSDTSTYYADSVKGRFTISRDNAKNTVYLHMNSVKPEDTAVYYCAAKEFSLARGARPRYYYWGQGTQVTVSS”, “high polyreactivity”; that for “QVQLVESGGGLVQAGGSLRLSCAASGSTFIRYAMGWYRQAPGKERELVAAITWRGGSTYYADSVKGRFTISRDNAKNTVYLQMNSLKPEDTAVYYCAARDRDTRNYYWGQGTQVTVSS”, “high polyreactivity”. For “QVQLVESGGGLVQAGGSLRLSCAASGSTFISNTMGWYRQAPGKERELVAAITRTGGRTYYADSVKGRFTISRDNAKNTVYLQMNSLKPEDTAVYYCARYGGYWSLKYDYWGQGTQVTVSS”, the “polyreactivity (PSR sort gate)” value is reported as “high polyreactivity”. The result for “QVQLVESGGGLVQAGGSLRLSCAASGSTFISYAMGWYRQAPGKERELVAAISSGGGRTSYADSVKGRFTISRDNAKNTVYLQMNSLKPEDTAVYYCNTKKLPYAEGYWGQGTQVTVSS” reads “low polyreactivity”. The result for “QVQLVESGGGLVQAGGSLRLSCAASGSTFISYAMGWYRQAPGKEREMVAAISWDGGSTYYADSVKGRFTISRDNAKNTVYLQMNSLKPEDTAVYYCNAEYDGAAGRYEYWGPGTQVTVSS” reads “low polyreactivity”; that for “QVQLVESGGGLVQAGGSLRLSCAASGSTFIWNGMGWYRQAPGKERELVAAITSSSTNYADSVKGRFTISRDNAKNTVYLQMNSLKPEDTAVYYCAAEIYPLGSLRLGPGEYDHWGQGTQVTVSS”, “low polyreactivity”; that for “QVQLVESGGGLVQAGGSLRLSCAASGSTFIYNALGWYRQAPGKERELVAAISSGGSTYYADSVKGRFTISRDNAKNSVYLQMNSLKPEDTAVYYCAAKGFPRSGYPYQAQHMYYWGQGTQVTVSS”, “low polyreactivity”. On to “QVQLVESGGGLVQAGGSLRLSCAASGSTFIYYAMGWNRQAPGKERELVDSISRSGGSTYYADSVKGRFTISRDNAKNTVYLQMNSLKPEDTAVYYCARAYRSSFNYWGQGTQVTVSS”, for which the “polyreactivity (PSR sort gate)” value was “high polyreactivity”. Turning to “QVQLVESGGGLVQAGGSLRLSCAASGSTFIYYAMGWYRQAPGKEREFVAAISYRGGSTYYADSVKGRFTISRDNAKNTVYLQMNSLKPEDTAVYYCAASYRKWNDYWGQGTQVNVSS”, the “polyreactivity (PSR sort gate)” value was “high polyreactivity”. The result for “QVQLVESGGGLVQAGGSLRLSCAASGSTFIYYAMGWYRQAPGKERELVAAISGSGASTYYADSVKGRFTISRDNAKNTVYLQMNSLKPEDTAVYYCHFYRWRGYDYWGQGTQVTVSS” reads “high polyreactivity”; that for “QVQLVESGGGLVQAGGSLRLSCAASGSTFIYYTMGWYRQAPGKERELVAASSWSGGNTYYADSVKGRFTISRDNAKNTVYLQMNSLKPEDTAVYYCAATRFSQYDWGQGTQVTVSS”, “high polyreactivity”. The result for “QVQLVESGGGLVQAGGSLRLSCAASGSTFIYYVKGWYRQAPGNERELVAAISGRTGSTYYADSVKGRFTISRDNAKNTVYLQMNSLTPEDTAVYYCAKRGFLYWDHVSGFYRYDYWGQGTQVTVSS” reads “low polyreactivity”; that for “QVQLVESGGGLVQAGGSLRLSCAASGSTFKAYAMGWYRQAPGKERELVAAITKSGGRTYYADSVKGRFTISRDNAKNTVYLQMISLKPEDTAVYYCAAVFRPDSSAYRYYYWGQGTQVTVSS”, “high polyreactivity”; that for “QVQLVESGGGLVQAGGSLRLSCAASGSTFKAYAMGWYRQAPGKERELVAAITKSGGRTYYADSVKGRFTISRDNAKNTVYLQMNSLKPEDTAVYYCAAVFRPDSSAYRYYYWGQGTQVTVSS”, “high polyreactivity”.

Turning to “QVQLVESGGGLVQAGGSLRLSCAASGSTFKAYAMGWYRQAPGKERELVAAITNSDGDTYYADSVKGRFTISRDNAKNTVYLQMNSLKAEDTAVYYCNALYFLKKLYDYWGQGTQVTVSS”, the “polyreactivity (PSR sort gate)” value is “low polyreactivity”. Next, “QVQLVESGGGLVQAGGSLRLSCAASGSTFKAYVMGWYRQAPGKERELVAVISRSGGTTYYADSVKGRFTISRDNAKNTVYLQMNSLKPEDTAVYYCAAQWRYQYPESLESYYWGQGTQVTVSS”: “high polyreactivity”; “QVQLVESGGGLVQAGGSLRLSCAASGSTFKFYAMGWYRQAPGKERELVAAISRSGGSTYYADSVKGRFTLSRDNAKNTVYLQMNSLKPEDTAGYYCAAERTLKSDYWGQGTQVTVSS”: “high polyreactivity”. Next, “QVQLVESGGGLVQAGGSLRLSCAASGSTFKFYGVGWYRQAPGKERQLVASITSSSGPTYYADSVKGRFTISRDNAKYTVYLQLNSLKPEDPAVYDCNKAWRRYWLRGDYWGQGKQVTVSS”: “low polyreactivity”; “QVQLVESGGGLVQAGGSLRLSCAASGSTFKIYAMGWYRQAPGKERELVAAITRGGSTNYADSVKGRFTISRDNAKNTVYLQMNSLKPEDTAVYYCAASYWYRRYGTYTYDYWGQGTQVTVSS”: “high polyreactivity”. Next, “QVQLVESGGGLVQAGGSLRLSCAASGSTFKIYAMGWYRQAPGKEREVVARITGRGGSTYYADSVKGRFTISRDNAKNTVYLQMNSLKPEDTAVYYCAAAKRYYSEMYWGQGTQVTVSS”: “high polyreactivity”. Take “QVQLVESGGGLVQAGGSLRLSCAASGSTFKRNAMGWYRQAPGKERELVAAISFRGGSTYYADSVKGRFTISRDNAKNTVYLQMNSLKPEDTAVYYCAAGIYRIRGGGISFDYWGQGTQVTVSS”: the “polyreactivity (PSR sort gate)” value was “high polyreactivity”. Next, “QVQLVESGGGLVQAGGSLRLSCAASGSTFKRYAMGWYRQAPGKERELVAAISRRGGSTYYADSVKGRFTISRDNAKNTVYLQMNSLKPEDTAVYYCAARIASHLYYYWGQGTQVTVSS”: “high polyreactivity”.
